Patent publication US6828121

Target: humanized anti-CD18 kappa light chain

B1: Prc protease (periplasmic C-terminal processing protein) (protein)
chain: VEDITRADQIPVLKEETQHATVSERVTSRFTRSHYRQFDLDQAFSAKIFDRYLNLLDYSHNVLLASDVEQFAKKKTELGDELRSGKLDVFYDLYNLAQKRRFERYQYALSVLEKPMDFTGNDTYNLDRSKAPWPKNEAELNALWDSKVKFDELSLKLTGKTDKEIRETLTRRYKFAIRRLAQTNSEDVFSLAMTAFAREIDPHTNYLSPRNTEQFNTEMSLSLEGIGAVLQMDDDYTVINSMVAGGPAAKSKAISVGDKIVGVGQTGKPMVDVIGWRLDDVVALIKGPKGSKVRLEILPAGKGTKTRTVTLTRERIRLEDRAVKMSVKTVGKEKVGVLDIPGFYVGLTDDVKVQLQKLEKQNVSSVIIDLRSNGGGALTEAVSLSGLFIPAGPIVQVRDNNGKVREDSDTDGQVFYKGPLVVLVDRFSASASEIFAAAMQDYGRALVVGEPTFGKGTVQQYRSLNRIYDQMLRPEWPALGSVQYTIQKFYRVNGGSTQRKGVTPDIIMPTGNEETETGEKFEDNALPWDSIDAATYVKSGDLTAFEPELLKEHNARIAKDPEFQNIMKDIARFNAMKDKRNIVSLNYAVREKENNEDDATRLARLNERFKREGKPELKKLDDLPKDYQEPDPYLDETVNIALDLAKLEKARPAEQPAPVK
With B1 the “kappa LC cleavage (LC clips on 1-D/2-D gels and peak 1 of the AME5/RP assay in prc-plus against prc-deletion strains)” value was “Here it is shown that Prc is the only protease involved in kappa LC cleavage inside E. coli cells”.
